The target of series [1] is T1, MUT-7FL/MUT-8CTD chain MUT-7FL;MUT-8CTD (Caenorhabditis elegans;Caenorhabditis …, UniProt P34607;Q19672 1-910;322-578, |).
T1 sequence 1: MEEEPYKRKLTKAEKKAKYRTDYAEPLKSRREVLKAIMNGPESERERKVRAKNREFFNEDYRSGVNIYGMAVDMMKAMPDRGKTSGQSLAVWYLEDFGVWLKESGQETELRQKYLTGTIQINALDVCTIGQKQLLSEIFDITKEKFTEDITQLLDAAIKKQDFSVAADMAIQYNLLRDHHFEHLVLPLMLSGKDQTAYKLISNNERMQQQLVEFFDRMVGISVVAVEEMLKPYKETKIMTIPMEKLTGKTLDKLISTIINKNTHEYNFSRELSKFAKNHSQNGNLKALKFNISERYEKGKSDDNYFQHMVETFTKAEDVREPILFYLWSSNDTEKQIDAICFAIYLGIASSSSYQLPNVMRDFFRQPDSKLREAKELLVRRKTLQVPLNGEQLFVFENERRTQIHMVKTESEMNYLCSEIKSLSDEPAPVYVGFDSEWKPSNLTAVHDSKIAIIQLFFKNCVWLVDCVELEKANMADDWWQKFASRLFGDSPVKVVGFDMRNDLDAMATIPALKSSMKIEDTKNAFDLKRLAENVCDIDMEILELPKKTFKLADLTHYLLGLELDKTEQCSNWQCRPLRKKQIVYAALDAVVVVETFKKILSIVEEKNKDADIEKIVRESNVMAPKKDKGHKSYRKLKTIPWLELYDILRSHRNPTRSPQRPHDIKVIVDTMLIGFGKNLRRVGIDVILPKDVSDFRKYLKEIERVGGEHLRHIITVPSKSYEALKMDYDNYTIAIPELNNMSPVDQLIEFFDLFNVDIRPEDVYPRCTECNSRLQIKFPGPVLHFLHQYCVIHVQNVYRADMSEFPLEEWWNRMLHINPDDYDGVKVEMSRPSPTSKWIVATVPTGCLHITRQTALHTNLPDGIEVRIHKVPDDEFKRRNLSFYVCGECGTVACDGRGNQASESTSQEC
T1 sequence 2: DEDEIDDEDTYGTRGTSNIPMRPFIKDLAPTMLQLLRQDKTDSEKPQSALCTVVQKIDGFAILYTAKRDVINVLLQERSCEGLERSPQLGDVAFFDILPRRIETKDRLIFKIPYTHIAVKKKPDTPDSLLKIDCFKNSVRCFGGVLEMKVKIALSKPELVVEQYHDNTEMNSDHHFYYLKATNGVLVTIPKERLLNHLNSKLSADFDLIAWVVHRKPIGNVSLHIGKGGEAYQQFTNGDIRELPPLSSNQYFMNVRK
Kind of series: fluorescence polarisation; 50 mM KCl, 5 mM EDTA; FP: 50 nM RNA, 20 mM HEPES/NaOH pH 7.5, 50 mM KCl, 5 mM EDTA (C. elegans) or 250 mM NaCl (human EXD3 and MUT-7 D435A), room temperature, 30 min. The note with it: protein: recombinant;recombinant; copies: 1;1; label: 5'-FAM; single strand.

The target of series [2] is T2, MUT-8^NTD (1-235), purified (C. elegans, UniProt Q19672 1-235).
T2 construct: C. elegans MUT-8 N-terminal domain construct, residues 1-235
T2 sequence (looked up): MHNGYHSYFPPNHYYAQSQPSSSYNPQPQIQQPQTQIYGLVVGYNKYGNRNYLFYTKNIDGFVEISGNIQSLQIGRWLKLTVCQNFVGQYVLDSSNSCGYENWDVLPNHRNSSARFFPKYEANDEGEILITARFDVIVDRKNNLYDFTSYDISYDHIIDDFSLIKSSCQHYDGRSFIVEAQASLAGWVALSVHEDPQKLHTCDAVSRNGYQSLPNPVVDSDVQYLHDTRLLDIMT
Kind of series: ITC; cell 46 µM MUT-8^NTD, syringe 600 µM MUT-16^584-724; 20 °C; 25 mM Tris/HCl pH 7.5, 150 mM NaCl, 0.25 mM TCEP; 19 injections of 2 µL; mean of three experiments. Particulars: both partners purified. On the technique in general: ITC needs no label: the signal is the heat of the interaction.

In series [3] the target is T3, MUT-7^FL/MUT-8^FL complex (C. elegans, UniProt P34607 1-910; Q19672 1-578).
T3 construct: C. elegans MUT-7, residues 1-910; C. elegans MUT-8 (RDE-2), residues 1-578; also called MUT-7/MUT-8; full-length MUT-7/MUT-8; source: E. coli BL21(DE3) derivative, co-expressed and purified as a complex through several chromatographic steps
T3 sequence (looked up) 1: T1 sequence 1
T3 sequence (looked up) 2: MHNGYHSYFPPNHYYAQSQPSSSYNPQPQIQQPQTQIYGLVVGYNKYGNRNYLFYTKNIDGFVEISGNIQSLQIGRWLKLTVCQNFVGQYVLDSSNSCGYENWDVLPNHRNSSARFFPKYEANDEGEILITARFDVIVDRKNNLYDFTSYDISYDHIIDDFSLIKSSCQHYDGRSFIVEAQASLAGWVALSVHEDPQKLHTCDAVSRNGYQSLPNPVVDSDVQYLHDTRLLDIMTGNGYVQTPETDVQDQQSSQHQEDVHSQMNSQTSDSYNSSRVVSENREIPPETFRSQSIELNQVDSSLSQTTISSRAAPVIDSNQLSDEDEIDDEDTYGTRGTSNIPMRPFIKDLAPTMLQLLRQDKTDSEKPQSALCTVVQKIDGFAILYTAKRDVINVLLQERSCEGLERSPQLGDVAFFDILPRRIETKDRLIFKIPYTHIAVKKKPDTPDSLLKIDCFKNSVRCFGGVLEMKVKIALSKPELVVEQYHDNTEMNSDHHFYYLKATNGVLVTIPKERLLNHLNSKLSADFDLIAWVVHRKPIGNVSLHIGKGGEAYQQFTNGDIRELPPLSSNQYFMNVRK
Kind of series: pull-down; purified proteins (5 µM), GST-tagged MUT-16 constructs as bait on glutathione resin; 20 mM HEPES/NaOH pH 7.5, 150 mM NaCl, 10% glycerol, 0.05% IGEPAL, 2 mM DTT; 4 °C; SDS-PAGE, Coomassie. Particulars: both partners purified.

B1: 16-mer ssRNA (ssRNA)
RNA: GUUGAUUGAAGAGUUC
As to B1, the Kd (in general, the concentration at which binding is half-saturated) in series [1] was 170 nM.

B2: MUT-16^584-724, purified (SEC, ITC) (domain or fragment, C. elegans, UniProt O62011 584-724, looked up)
chain: KKKSESSATDTSNTPPVDTVNVALPTPVVESSSTTAAPSIPVSTRPEVVVPPENPAPLREVGNFYSKSNHDEDRRNVQLPFTPADTHKPIKVAPKEPVRNPLLKERPSANGFINRRLPSHPAPPPVNQSQPANQPMQTAVY
notes: source: E. coli BL21(DE3) derivative, purified (alone, or co-expressed with MUT-8^NTD and purified as a complex)
With B2, the Kd in series [2] was around 13 µM.

B3: GST-tagged MUT-16^1-724 (domain or fragment, C. elegans, UniProt O62011 1-724, looked up)
chain: MSESDDDYPELDISDQYIDPLGIVVGPPPASYTETDREETPMQNRTEDDTNSYGNSSGEHDYDSYLDSGDDDFDVDAYYANDNMDEPPPETIPDNLIQNVIGRNDNADYDFSDASNPEIMKRDLQLFLSSSLLSNPLKFRSGYSSDELDDCLKSCMGYSLQVTAVLLLPPEIISQLPNDSKTEHAHALVRGGWLQSKEGAFFPVISDSERETVVSLMNGSEEQHKRQERKKKEADTFESEEKEIRTLLTFNMIAELLMAVRNEYSIRSVKYQILSTAYTNMVTGAAHANIFRKYKDILQLDPEKLWNNDWFKEYTNRGTLKKFLTTARFSEIVVSQANGKTVELYFRADDEGNRPVVLFTDEHIADVRNKWKTGNQRNQNYGSQGNYRAGGQRSDDRRGPQQRRNVIVPDPNYQPSTFAGGISNNADDDGSLQPTTSSHFNRNTDRSTSRPPRAPTSPVNRVMETDPLMGQGTSSGAPQRSAIPNPFGGAPALSRSTITNGNRGPSYGDRGERVQDVGDTTSDSEITSEGSYSDEDPEQKEIKRQRRKDKLKKKQERELRSREKHTKSKQQPPSKIETRFNTYKKKSESSATDTSNTPPVDTVNVALPTPVVESSSTTAAPSIPVSTRPEVVVPPENPAPLREVGNFYSKSNHDEDRRNVQLPFTPADTHKPIKVAPKEPVRNPLLKERPSANGFINRRLPSHPAPPPVNQSQPANQPMQTAVY
notes: source: E. coli BL21(DE3) derivative, purified as GST-tagged fusion protein
With B3, in series [3], the binding result was “binds”.
